Changes are numbered by the printed parent chain. Several values for one entry are separate records, joined by “and”; a condition that tells them apart may be missing. Equal entries are not always repeated. Entries after “also recorded” stand apart in the source; their conditions may differ. Blank lines part the entries; values can stand above or below the molecule they belong to. No end group written: not given here. *: point of attachment. Biotin = O=C1N[C@H]2[C@H](CS[C@H]2CCCCC(=O)*)N1
Columns and labels:
[1] = target: T1, MBP-Siah1a (Mus musculus, UniProt P61092); test: Surface plasmon resonance (Biacore) binding of PHYL108-130 to Siah; settings: Biacore 2000, peptide immobilised on chip, MBP-Siah1a as analyte, read-out: affinity constant
T1 construct: made in house; host or cells: pMalC2 plasmid
T1 sequence (P61092 1-282): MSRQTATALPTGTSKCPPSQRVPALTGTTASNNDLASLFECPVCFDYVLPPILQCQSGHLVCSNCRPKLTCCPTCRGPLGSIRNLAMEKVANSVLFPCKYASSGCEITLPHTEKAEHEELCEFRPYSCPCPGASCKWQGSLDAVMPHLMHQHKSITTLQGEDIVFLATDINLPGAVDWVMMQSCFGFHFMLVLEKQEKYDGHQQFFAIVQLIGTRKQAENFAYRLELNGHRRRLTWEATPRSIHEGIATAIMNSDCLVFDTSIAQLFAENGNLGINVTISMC
Text: (§1) The binding kinetics for Siah interaction with PHYL108-130 were monitored using surface plasmon resonance on a Biacore 2000. The biotinylated PHYL108-130 peptide was captured on the chip surface by immobilised neutravidin, and MBP-Siah1a was used as analyte.
(§2) To determine binding affinities, synthetic PHYL peptide was immobilised to a C5 BIAcore chip using two different strategies (direct chemical coupling through the free amino group on Lysine113 and binding to coupled avidin via an N-terminal biotin on the peptide) and interaction was measured directly by surface plasmon resonance. This method facilitated the measurement of association and dissociation rates, and the determination of an affinity constant (FIG. 26).

[2] = target: T2, MBP-Siah (Mus musculus, UniProt P61092); test: Competition assay: peptides as competitors of wild-type PHYL108-130 binding to Siah (96-well plate, anti-MBP detection); settings: competition with immobilised GST-PHYL108-130 for MBP-Siah, 1 hour at room temperature; estimated from inhibition curves; read-out: IC50 (concentration at which 50% inhibition is observed)
T2 construct: made in house
T2 sequence (P61092 1-282): T1 sequence (P61092 1-282)
Procedure: Mutant peptides were used in a competition assay in which they were tested as competitors of wild-type PHYL 108-130 binding to Siah. GST-PHYL108-130 was immobilised in wells of a 96-well plate and MBP-Siah was bound for 1 hour at room temperature, in the presence of various concentrations of mutant peptides. After binding and washing, the amount of bound MBP-Siah was quantitated in a two antibody sandwich of anti-MBP antibody, followed by HRP-conjugated goat anti-rabbit antibody, using ABTS as substrate. IC50 (the concentration at which 50% inhibition is observed) values were estimated from the individual inhibition curves.
In order to test this hypothesis Applicants systematically mutated the PHYL peptide, utilising the solid phase pin technology of Mimotopes (Clayton, Victoria, Australia). A full set of peptides, with alanine substituted at each position in the peptide, was synthesised. At positions where a native alanine occurred, glycine was substituted. Mutant peptides were screened for their ability to compete with the binding between Siah and PHYL peptide, then peptides of interest were investigated further utilising surface plasmon resonance.
The initial screen of peptides yielded IC50 values of approximately 50-100 nM for wild-type peptide or peptides with ineffective mutations. […]

[3] = target: T3, MBP-Siah1a-ZC fusion protein (native Siah substrate-binding domain) (Mus musculus, UniProt P61092); test: ELISA-based binding of biotinylated plectin peptide to Siah substrate-binding domain; settings: peptide captured on Neutravidin plate at 4 μg/ml; ABTS read at A405
T3 construct: made in house; host or cells: E. coli BL21DE3
T3 sequence (P61092 80-282): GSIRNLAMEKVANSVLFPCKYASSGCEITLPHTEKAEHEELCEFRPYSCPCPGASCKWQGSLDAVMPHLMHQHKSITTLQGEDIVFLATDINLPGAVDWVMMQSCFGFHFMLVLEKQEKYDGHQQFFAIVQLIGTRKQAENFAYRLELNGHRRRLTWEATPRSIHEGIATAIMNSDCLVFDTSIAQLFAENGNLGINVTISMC
Procedure: (§3) Siah SBD binding to the plectin peptide (Biotin-[…]-NH2 corresponding to residues 95-117 of human plectin) was assessed by capturing biotinylated peptide on a 96-well plate coated with 0.5 μg Neutravidin per well. Peptide was captured for 30 min at room temperature at a concentration of 4 μg/ml. MBP-Siah1a-ZC fusion protein was bound to the peptide for 50 min at room temperature (or the controls of buffer alone (PBS/tween 20) or mutant MBP-Siah1a-ZC containing a Leu211 to Arg mutation). Bound protein was quantitated by rabbit anti-MBP antibody (1:300 dilution), then HRP conjugated goat-anti-rabbit antibody. Detection utilised ABTS substrate read at A405.
(§4) Following the identification of a Siah binding motif present in PHYL (RPVAXVXPXXR), a protein database search detected a number of proteins with conserved motifs, including plectin. The Applicants utilised a synthetic peptide corresponding to the sequence […] in plectin to test binding to Siah in an ELISA-based assay, where the underlined sequence corresponds to the amino acids conserved with the PHYL motif. […] Furthermore, as other Siah binding proteins are identified in this way it is predicted that the sequence of the optimal binding motif will be further refined.

[4] = target: T4, mutant MBP-Siah1a-ZC containing a Leu211 to Arg mutation (Mus musculus, UniProt P61092, L211R); test: ELISA-based binding of biotinylated plectin peptide to mutant Siah substrate-binding domain; settings: peptide captured on Neutravidin plate at 4 μg/ml; ABTS read at A405
T4 construct: made in house; the making of the mutant is not described
T4 sequence (P61092 80-282 L211R): T3 sequence (P61092 80-282) with L132R
Procedure: as §3, §4

[5] = target: T5, Siah (Mus musculus, UniProt P61092); test: Interaction studies using bacterially expressed proteins; type: binding
T5 construct: made in house; host or cells: bacteria
T5 sequence (P61092 1-282): T1 sequence (P61092 1-282)
Text: PHYL is known to interact and function with SINA, the Drosophila orthologue of mammalian Siah, in the targeted degradation of the transcriptional repressor tramtrack 88 (TTK88). Applicants have shown that it interacts similarly with mammalian Siah.

[6] = target: T6, Siah1a SBD (Mus musculus, UniProt P61092); test: Stoichiometry of the GST-PHYL108-130 / Siah1a SBD complex by gel filtration and N-terminal sequencing; type: binding; settings: complex isolated on Superdex 200; after five cycles of N-terminal sequencing
T6 construct: isolating a complex of GST-PHYL108-130 and Siah1a SBD by gel filtration; made in house; host or cells: E. coli BL21DE3
T6 sequence (P61092 90-282 limits assumed): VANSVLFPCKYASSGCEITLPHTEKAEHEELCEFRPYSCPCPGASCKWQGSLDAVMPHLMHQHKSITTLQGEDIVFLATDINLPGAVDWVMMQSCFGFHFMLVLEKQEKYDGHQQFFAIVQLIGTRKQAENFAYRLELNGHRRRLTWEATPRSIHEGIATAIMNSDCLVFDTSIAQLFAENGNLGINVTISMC
Text: (§5) The stoichiometry of interaction was investigated by isolating a complex of GST-PHYL108-130 and Siah1a SBD by gel filtration on Superdex 200 and quantitating the components by N-terminal sequencing.

[7] = target: the molecule itself; test: size exclusion chromatography (self-association of the Siah1a binding domain)
[8] = target: T7, GST-PHYL108-130 (Drosophila); test: complex isolated by gel filtration on Superdex 200, components quantitated by N-terminal sequencing (five cycles)
T7 construct: also called PHYL peptide as a fusion protein with glutathione-S-transferase; not shown: glutathione-S-transferase (GST) fusion partner
T7 chain: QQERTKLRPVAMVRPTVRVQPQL
Text: as §5

[9] = target: T8, MBP-Siah1a-ZC fusion protein (mouse, UniProt P61092 80-282); test: ELISA: biotinylated plectin peptide captured on Neutravidin-coated plate, bound MBP fusion detected with anti-MBP and HRP antibody, ABTS, A405
T8 construct: range 80-282; ZC = zinc fingers plus C-terminus, residues 80-282 of Siah1a, fused to MBP; also called Siah SBD; not shown: linker not described
T8 sequence (looked up): T3 sequence (P61092 80-282)
Procedure: as §3

[10] = target: T9, MBP-Siah1a fusion protein (mouse, UniProt P61092 1-282, limits assumed); test: SPR, Biacore 2000; biotinylated peptide captured on immobilised neutravidin, MBP-Siah1a as analyte
T9 construct: not shown: linker to Siah1a not described
T9 sequence (looked up): T1 sequence (P61092 1-282)
Text: as §1, §2

Molecule: QQERTKLRPVAMVRPTVRVQPQL [PHYL108-130]
Kd [1]: ~180 nM and 180 nM
IC50 [2]: 50 to 100 nM

Molecule: Biotin-ASLQRVRRPVAMVMPARRTPHVQ-NH2 [plectin peptide]
binding to native Siah substrate-binding domain [3]: bound; also recorded: binds
binding to mutant form of Siah substrate-binding domain (Leu211 to Arg) [4]: not

B2: Siah1a binding domain (purified tryptic fragment) (other, mouse, UniProt P61092 90-282, looked up)
chain: T6 sequence (P61092 90-282 limits assumed)
modifications: two 2-mercaptoethanol adducts on cysteines in the purified form (21,838 Da; 21,685 Da when reduced)
notes: Dimer by size exclusion chromatography and in the crystal; Start residue must be found by locating VANSV on Siah1a; also called Siah1a SBD
binding result [7]: binds
average ratio of Siah binding domain to GST-PHYL108-130 residues (stoichiometry) [8]: 2.34 mol/mol

B4: OBF-1: Oct-binding factor 1 (OBF-1) (protein, UniProt Q16633 1-256, looked up)
POU domain class …: MLWQKPTAPEQAPAPARPYQGVRVKEPVKELLRRKRGHASSGAAPAPTAVVLPHQPLATYTTVGPSCLDMEGSVSAVTEEAALCAGWLSQPTPATLQPLAPWTPYTEYVPHEAVSCPYSADMYVQPVCPSYTVVGPSSVLTYASPPLITNVTTRSSATPAVGPPLEGPEHQAPLTYFPWPQPLSTLPTSTLQYQPPAPALPGPQFVQLPISIPEPVLQDMEDPRRAASSLTIDKLLLEEEDSDAYALNHTLSVEGF
affinity of interaction with Siah (in words) [5]: lower affinity

B5: Kid: kinesin-like DNA-binding protein (Kid) (protein, UniProt Q14807 1-665, looked up)
Kinesin-like protein KIF22: MAAGGSTQQRRREMAAASAAAISGAGRCRLSKIGATRRPPPARVRVAVRLRPFVDGTAGASDPPCVRGMDSCSLEIANWRNHQETLKYQFDAFYGERSTQQDIYAGSVQPILRHLLEGQNASVLAYGPTGAGKTHTMLGSPEQPGVIPRALMDLLQLTREEGAEGRPWALSVTMSYLEIYQEKVLDLLDPASGDLVIREDCRGNILIPGLSQKPISSFADFERHFLPASRNRTVGATRLNQRSSRSHAVLLVKVDQRERLAPFRQREGKLYLIDLAGSEDNRRTGNKGLRLKESGAINTSLFVLGKVVDALNQGLPRVPYRDSKLTRLLQDSLGGSAHSILIANIAPERRFYLDTVSALNFAARSKEVINRPFTNESLQPHALGPVKLSQKELLGPPEAKRARGPEEEEIGSPEPMAAPASASQKLSPLQKLSSMDPAMLERLLSLDRLLASQGSQGAPLLSTPKRERMVLMKTVEEKDLEIERLKTKQKELEAKMLAQKAEEKENHCPTMLRPLSHRTVTGAKPLKKAVVMPLQLIQEQAASPNAEIHILKNKGRKRKLESLDALEPEEKAEDCWELQISPELLAHGRQKILDLLNEGSARDLRSLQRIGPKKAQLIVGWRELHGPFSQVEDLERVEGITGKQMESFLKANILGLAAGQRCGAS
affinity of interaction with Siah (in words) [5]: lower affinity

Results, then the molecule that gave them:

affinity of interaction with Siah (in words) [5]: lower affinity
Molecule: DCC: deleted in colorectal cancer (DCC)

average ratio of Siah binding domain to GST-PHYL108-130 residues [6]: 2.34±0.38
Molecule: GST-PHYL108-130: PHYL 23-residue peptide expressed as a fusion with glutathione-S-transferase (GST) (QQERTKLRPVAMVRPTVRVQPQL; not fully specified (N-terminus); also: GST fusion)

affinity of interaction with Siah (in words) [5]: lower affinity
B1: SIP: Siah-interacting protein (SIP) (protein, UniProt Q9HB71 2-228, looked up)
Calcyclin-binding protein: ASEELQKDLEEVKVLLEKATRKRVRDALTAEKSKIETEIKNKMQQKSQKKAELLDNEKPAAVVAPITTGYTVKISNYGWDQSDKFVKIYITLTGVHQVPTENVQVHFTERSFDLLVKNLNGKSYSMIVNNLLKPISVEGSSKKVKTDTVLILCRKKVENTRWDYLTQVEKECKEKEKPSYDTETDPSEGLMNVLKKIYEDGDDDMKRTINKAWVESREKQAKGDTEF

binding result [9]: binds
B3: plectin peptide (Biotin-ASLQRVRRPVAMVMPARRTPHVQ-NH2) (peptide)
peptide: Biotin-ASLQRVRRPVAMVMPARRTPHVQ-NH2
SMILES: CSCC[C@H](NC(=O)[C@H](C)NC(=O)[C@@H](NC(=O)[C@@H]1CCCN1C(=O)[C@H](CCCNC(=N)N)NC(=O)[C@H](CCCNC(=N)N)NC(=O)[C@@H](NC(=O)[C@H](CCCNC(=N)N)NC(=O)[C@H](CCC(N)=O)NC(=O)[C@H](CC(C)C)NC(=O)[C@H](CO)NC(=O)[C@H](C)NC(=O)CCCC[C@@H]1SC[C@@H]2NC(=O)N[C@@H]21)C(C)C)C(C)C)C(=O)N[C@H](C(=O)N[C@@H](CCSC)C(=O)N1CCC[C@H]1C(=O)N[C@@H](C)C(=O)N[C@@H](CCCNC(=N)N)C(=O)N[C@@H](CCCNC(=N)N)C(=O)N[C@H](C(=O)N1CCC[C@H]1C(=O)N[C@@H](Cc1c[nH]cn1)C(=O)N[C@H](C(=O)N[C@@H](CCC(N)=O)C(N)=O)C(C)C)[C@@H](C)O)C(C)C
notes: also called synthetic peptide corresponding to residues 95-117 of human plectin

Kd [10]: 180 nM
Molecule: Biotin-QQERTKLRPVAMVRPTVRVQPQL (also called synthetic PHYL peptide) [biotinylated PHYL108-130 peptide]

From patent US20050079503A1, “Binding domain of Siah (seven in absentia homolog) protein” (PETER MacCALLUM CANCER INSTITUTE, ST. VINCENT'S INSTITUTE …, priority 2001, published 2005)
